This note sets out measurements from PMC5558127, “Plant Glyoxylate/Succinic Semialdehyde Reductases: Comparative Biochemical Properties, Function during Chilling Stress, and Subcellular Localization” (Frontiers in Plant Science, 2017).

Common to all, as to test: NADPH oxidation, absorbance microplate reader
One data set deals with T1, AtGLYR2 (AtGLYR2Δ58) (Arabidopsis thaliana, UniProt F4I907).
T1 construct: gene GLYR2
T1 sequence (F4I907 59-358): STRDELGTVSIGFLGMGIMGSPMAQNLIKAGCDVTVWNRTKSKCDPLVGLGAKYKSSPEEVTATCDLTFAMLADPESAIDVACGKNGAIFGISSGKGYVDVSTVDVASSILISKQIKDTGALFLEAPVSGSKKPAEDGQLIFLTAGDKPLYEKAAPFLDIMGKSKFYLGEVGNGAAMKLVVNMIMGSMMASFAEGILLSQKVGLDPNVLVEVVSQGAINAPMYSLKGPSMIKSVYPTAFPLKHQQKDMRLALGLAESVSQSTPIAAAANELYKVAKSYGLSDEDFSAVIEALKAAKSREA
Type of data set: biochemical. As to conditions: 50 μM NADPH fixed; pH optimum of the enzyme, MES/HEPES/TABS 50 mM each; room temperature. The text has this: NADPH oxidation, absorbance microplate reader on AtGLYR2 (AtGLYR2Δ58)

For a further data set, the target named is T2, AtGLYR1 (Arabidopsis thaliana, UniProt Q9LSV0).
T2 construct: gene GLYR1
T2 sequence (Q9LSV0 1-289): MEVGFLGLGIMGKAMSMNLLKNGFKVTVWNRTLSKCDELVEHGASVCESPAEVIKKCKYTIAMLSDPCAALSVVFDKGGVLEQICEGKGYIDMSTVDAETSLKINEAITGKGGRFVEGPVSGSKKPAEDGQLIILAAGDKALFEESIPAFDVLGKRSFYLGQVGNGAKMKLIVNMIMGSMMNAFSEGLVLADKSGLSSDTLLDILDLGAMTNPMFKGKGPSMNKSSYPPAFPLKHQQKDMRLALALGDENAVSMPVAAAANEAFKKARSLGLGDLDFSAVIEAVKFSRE
Type of data set: biochemical. As to conditions: 50 μM NADPH fixed; pH optimum of the enzyme, MES/HEPES/TABS 50 mM each; room temperature. The source says:
NADPH oxidation, absorbance microplate reader on AtGLYR1

The target in another data set is MdGLYR1 (Malus domestica, UniProt A0A1C8M582). Type of data set: biochemical. The note with it: 50 μM glyoxylate, 50 μM NADPH, NADP+ varied 0-0.5 mM.
The next data set addresses T3, MdGLYR2 (MdGLYR2Δ54) (Malus domestica, UniProt A0A1C8M593).
T3 construct: N-terminal targeting peptide removed (Δ54)
Type of data set: biochemical. The note with it: 50 μM glyoxylate, 50 μM NADPH, NADP+ varied 0-0.5 mM.

Substrate in data set [1]: NC(=O)C1=CN([C@@H]2O[C@H](COP(=O)(O)OP(=O)(O)OC[C@H]3O[C@@H](n4cnc5c(N)ncnc54)[C@H](OP(=O)(O)O)[C@@H]3O)[C@@H](O)[C@H]2O)C=CC1
Type of data set: biochemical, Malus domestica. As to conditions: 50 μM glyoxylate fixed; pH optimum of the enzyme, MES/HEPES/TABS 50 mM each; room temperature; varied: cofactor. The text has this:
(§1) NADPH oxidation, absorbance microplate reader on MdGLYR1

Substrate in data set [2]: O=CC(=O)O
Type of data set: biochemical, Malus domestica. The note with it: 50 μM NADPH fixed; pH optimum of the enzyme, MES/HEPES/TABS 50 mM each; room temperature.
Source text: as §1

Substrate in data set [3]: O=CCCC(=O)O
Type of data set: biochemical, Malus domestica. As to conditions: 50 μM NADPH fixed; pH optimum of the enzyme, MES/HEPES/TABS 50 mM each; room temperature.
Source text: as §1

Substrate in data set [4]: NC(=O)C1=CN([C@@H]2O[C@H](COP(=O)(O)OP(=O)(O)OC[C@H]3O[C@@H](n4cnc5c(N)ncnc54)[C@H](OP(=O)(O)O)[C@@H]3O)[C@@H](O)[C@H]2O)C=CC1
The data set is classed as biochemical, Malus domestica. The note with it: 50 μM glyoxylate fixed; pH optimum of the enzyme, MES/HEPES/TABS 50 mM each; room temperature; varied: cofactor. The source says: (§2) NADPH oxidation, absorbance microplate reader on MdGLYR2 (MdGLYR2Δ54)
The source holds these as a separate data set.

Substrate in data set [5]: O=CC(=O)O
Type of data set: biochemical, Malus domestica. As to conditions: 50 μM NADPH fixed; pH optimum of the enzyme, MES/HEPES/TABS 50 mM each; room temperature.
Source text: as §2
The source holds these as a separate data set.

Substrate in data set [6]: O=CCCC(=O)O
Type of data set: biochemical, Malus domestica. As to conditions: 50 μM NADPH fixed; pH optimum of the enzyme, MES/HEPES/TABS 50 mM each; room temperature.
Source text: as §2
This is another data set of the same source.

As to `O=CC(=O)O` [glyoxylate], the Km came out at 19.3 ± 4 µM at AtGLYR2 (AtGLYR2Δ58) and 23.2 ± 3.2 µM on AtGLYR1.
As for `NC(=O)c1ccc[n+]([C@@H]2O[C@H](COP(=O)(O)OP(=O)(O)OC[C@H]3O[C@@H](n4cnc5c(N)ncnc54)[C@H](OP(=O)(O)O)[C@@H]3O)[C@@H](O)[C@H]2O)c1` [NADP+], the “% inhibition at NADP+/NADPH ratio of 5” value at MdGLYR1 and on MdGLYR2 (MdGLYR2Δ54) was ~ 50% throughout.

B1: MdGLYR1 (Malus domestica) (protein)
chain: MEVGFLGLGIMGKAMSMNLLRHGFKVTVWNRTLSKSHELVEHGASVAETPAEVVRKCKYTIAMLSDPSAALSVVFGKDGILEQICAGKSYVDMSTVDADTSSKINEAIKERGGYFLEAPVSGSKKPAEDGQLVILAAGEKALYEEVIPAFNVMGKKSFYLGQVGNGAKMKLVVNMIMGSMMNAFSEGLVLAGRSGLEPSVLLDVLDLGGIANPMFRLKGPTMIQGSHSPAFPLKHQQKDMRLALALGDETATSMPVAAAANEAFKKARSMGLGDLDFSAVYETVKTLEEPSRNSQLR
Take B1: in data set [1], the Michaelis constant (Km) stood at 3.3 ± 0.5 µM, the Vmax was determined as 39.4 µmol/min/mg, the kcat is 22.3 ± 3.4 s⁻¹ and the kcat/Km came out at 6.8e+06 ± 278000 M⁻¹ s⁻¹. In addition, in [2], the Km was determined as 14.1 ± 2.1 µM, the Vmax stood at 54.7 µmol/min/mg, the kcat was determined as 30.9 ± 3.8 s⁻¹ and the kcat/Km was determined as 2.23e+06 ± 153000 M⁻¹ s⁻¹. Besides, in data set [3], the Michaelis-Menten constant (Km) was 1133 ± 273 µM, the Vmax was 8.1 µmol/min/mg, the kcat came to 4.6 ± 1.6 s⁻¹ and the kcat/Km came to 5100 ± 2300 M⁻¹ s⁻¹.

B2: MdGLYR2 (MdGLYR2Δ54) (Malus domestica) (protein)
chain: ASSKDELPARVGFLGLGIMGSPMAQNLIKSGCDVTVWNRTKSKCDPLISLGAKYKPSPEEVAASCDVTFAMLADPESAVAVALGKHGAANGMSSGKGYVDVSTVDVATSKLIGGNIKATGASFLEAPVSGSKKPAEDGQLIFLTAGDKSLYETVASLLDIMGKSRFYLGEVGNGAAMKLVVNMIMGSMMASFSEGLLLTEKIGLDPKVLVEVVSQGAISAPMYSMKGPSMIQSVYPTAFPLKHQQKDMRLALGLAESVSQSTPIAAAANELYKVAKSHGLSDEDFSAVIEALKPKLKH
notes: N-terminal targeting peptide removed (Δ54)
Take B2: in [4], the Km was determined as 1.8 ± 0.5 µM, the maximal velocity (Vmax) came out at 28.2 µmol/min/mg, the kcat was determined as 15.7 ± 1.5 s⁻¹ and the kcat/Km stood at 1.01e+07 ± 2.28e+06 M⁻¹ s⁻¹. Further, in [5], the Km was 23.9 ± 1.9 µM, the Vmax was found to be 34.3 µmol/min/mg, the kcat is 19.1 ± 2.1 s⁻¹ and the kcat/Km was 796000 ± 33000 M⁻¹ s⁻¹. For the same molecule, in data set [6], the Km came to 6500 ± 327 µM, the Vmax is 18.6 µmol/min/mg, the catalytic constant (kcat) came out at 10.3 ± 1.9 s⁻¹ and the kcat/Km was 1600 ± 200 M⁻¹ s⁻¹.

As usually defined, the Km is the substrate concentration at which the rate is half of its maximum. By Vmax is commonly meant the top rate of the reaction or transport when substrate is in excess. Broadly, the kcat is the number of substrate molecules converted per active site and unit of time at saturation. Usually kcat/Km stands for the second-order rate constant that governs catalysis at low substrate concentration.
